Drawing on publication PMC10397247, this text covers interaction score for six molecules.

Holding throughout (test): two-hybrid library CCNG1;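 note: natural log of median RNA to DNA barcode read ratio; higher means stronger binding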
For one test, the target named is T1, 4H491-bN.
T1 chain: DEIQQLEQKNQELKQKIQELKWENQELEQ

Another test concerns the target T2, 4H342-bN.
T2 chain: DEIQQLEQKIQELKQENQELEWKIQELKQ

In the next test the target is T3, 4H48-bN.
T3 chain: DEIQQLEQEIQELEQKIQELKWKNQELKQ

For the next test, the target named is T4, 4H2944-bN.
T4 chain: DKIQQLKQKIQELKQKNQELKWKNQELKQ

Another test addresses T5, 4H2745-bA.
T5 chain: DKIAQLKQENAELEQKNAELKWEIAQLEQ

In a further test the target is T6, P1mSN.
T6 chain: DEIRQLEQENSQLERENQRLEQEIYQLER

For another test, the target named is T7, 4H344-bA.
T7 chain: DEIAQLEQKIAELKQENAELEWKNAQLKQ

The next test deals with T8, 4H3907-bA.
T8 chain: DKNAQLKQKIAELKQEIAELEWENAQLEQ

In a further test the target is T9, 4H470-bA.
T9 chain: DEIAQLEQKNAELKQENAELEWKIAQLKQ

For another test, the target named is T10, 4H363-bA.
T10 chain: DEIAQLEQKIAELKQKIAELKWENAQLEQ

The target in another test is T11, 4H3961-bA.
T11 chain: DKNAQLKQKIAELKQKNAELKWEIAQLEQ

The target of another test is T12, 4H3974-bA.
T12 chain: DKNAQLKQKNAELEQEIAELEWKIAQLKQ

In another test the target is T13, P8A-bS.
T13 chain: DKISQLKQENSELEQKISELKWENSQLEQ

Another test addresses T14, P4A-bS.
T14 chain: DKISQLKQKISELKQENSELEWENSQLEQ

For the next test, the target named is T15, P3A-bS.
T15 chain: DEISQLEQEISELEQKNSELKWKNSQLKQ

A further test addresses T16, P9A-bS.
T16 chain: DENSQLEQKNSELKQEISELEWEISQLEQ

The target in the next test is T17, P2A-bS.
T17 chain: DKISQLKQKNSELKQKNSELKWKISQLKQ

In a further test the target is T18, P6A-bS.
T18 chain: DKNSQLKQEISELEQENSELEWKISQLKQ

The next test deals with T19, P7A-bS.
T19 chain: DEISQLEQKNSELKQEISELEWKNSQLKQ

The target in another test is T20, P5A-bS.
T20 chain: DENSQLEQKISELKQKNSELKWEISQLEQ

The target in another test is T21, P5A-bP.
T21 chain: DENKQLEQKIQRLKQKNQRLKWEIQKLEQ

For a further test, the target named is T22, P6A-bP.
T22 chain: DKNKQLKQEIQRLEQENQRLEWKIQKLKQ

Another test addresses T23, P2A-bP.
T23 chain: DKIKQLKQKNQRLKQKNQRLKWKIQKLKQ

The target of another test is T24, P8A-bP.
T24 chain: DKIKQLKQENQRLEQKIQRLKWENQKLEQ

A further test deals with T25, P9A-bP.
T25 chain: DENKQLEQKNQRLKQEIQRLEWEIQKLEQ

Another test addresses T26, P7A-bP.
T26 chain: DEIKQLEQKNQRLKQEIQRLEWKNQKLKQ

A further test concerns the target T27, P4A-bP.
T27 chain: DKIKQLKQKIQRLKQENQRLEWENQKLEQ

Another test addresses T28, P3A-bP.
T28 chain: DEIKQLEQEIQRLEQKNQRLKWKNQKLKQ

The target in another test is T29, 4H2859-bN.
T29 chain: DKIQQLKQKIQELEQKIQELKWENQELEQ

A further test concerns the target T30, 4H3041-bN.
T30 chain: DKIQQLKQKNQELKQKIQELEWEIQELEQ

The target in another test is T31, 4H3297-bN.
T31 chain: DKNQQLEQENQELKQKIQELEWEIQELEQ

For another test, the target named is T32, 4H2931-bN.
T32 chain: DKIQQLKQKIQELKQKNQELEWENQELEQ

Another test concerns the target T33, 4H949-bN.
T33 chain: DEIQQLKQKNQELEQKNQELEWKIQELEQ

Another test addresses T34, 4H796-bN.
T34 chain: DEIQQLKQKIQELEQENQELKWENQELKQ

In a further test the target is T35, 4H2585-bN.
T35 chain: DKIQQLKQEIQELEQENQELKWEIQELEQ

Another test has as its target T36, 4H235-bN.
T36 chain: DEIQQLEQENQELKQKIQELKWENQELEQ

The target in another test is T37, 4H730-bN.
T37 chain: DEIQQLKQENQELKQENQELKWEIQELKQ

For another test, the target named is T38, 4H2760-bN.
T38 chain: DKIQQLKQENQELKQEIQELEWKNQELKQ

The next test deals with T39, 4H56-bN.
T39 chain: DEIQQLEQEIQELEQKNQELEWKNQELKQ

For another test, the target named is T40, 4H349-bN.
T40 chain: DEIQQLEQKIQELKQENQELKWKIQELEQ

For a further test, the target named is T41, 4H2253-bN.
T41 chain: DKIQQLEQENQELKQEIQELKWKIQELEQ

The next test has as its target T42, 4H3381-bN.
T42 chain: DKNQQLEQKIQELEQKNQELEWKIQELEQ

A further test deals with T43, 4H3364-bN.
T43 chain: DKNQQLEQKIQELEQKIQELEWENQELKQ

A further test addresses T44, 4H264-bN.
T44 chain: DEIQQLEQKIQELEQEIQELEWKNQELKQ

The target of another test is T45, 4H2518-bN.
T45 chain: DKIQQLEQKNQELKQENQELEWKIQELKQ

Another test concerns the target T46, 4H2444-bN.
T46 chain: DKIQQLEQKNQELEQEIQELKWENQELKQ

The next test concerns the target T47, 4H932-bN.
T47 chain: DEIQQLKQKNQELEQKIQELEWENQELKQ

The next test addresses T48, 4H3907-bH.
T48 chain: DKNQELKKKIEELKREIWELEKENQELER

The next test addresses T49, 4H4038-bH.
T49 chain: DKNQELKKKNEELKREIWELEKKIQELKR

A further test concerns the target T50, 4H3601-bH.
T50 chain: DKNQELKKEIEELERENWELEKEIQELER

The next test deals with T51, 4H3592-bH.
T51 chain: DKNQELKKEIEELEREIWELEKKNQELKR

B1: 4H2944-bN (peptide)
chain: DKIQQLKQKIQELKQKNQELKWKNQELKQ
For the molecule B1, the interaction score is -0.954 with 4H491-bN, -0.943 with 4H342-bN, -0.0947 with 4H48-bN and -0.735 with 4H2944-bN.

B2: 4H2745-bA (peptide)
chain: DKIAQLKQENAELEQKNAELKWEIAQLEQ
Consider B2, for which the interaction score with 4H2745-bA was -0.711; with P1mSN, -0.547; in the test with 4H344-bA, 0.257; in the test with 4H3907-bA, -1.14; with 4H470-bA, 2.34; with 4H363-bA, -1.18. The interaction score with 4H3961-bA is -1.18; with 4H3974-bA it was 0.

B3: P2A-bS (peptide)
chain: DKISQLKQKNSELKQKNSELKWKISQLKQ
In the case of B3, the interaction score in the test with P8A-bS was -0.742; in the test with P4A-bS it was -0.497; with P3A-bS, -0.857; with P9A-bS it was -0.777; in the test with P2A-bS it was -1.36; in the test with P6A-bS it was -1.71. The interaction score with P7A-bS was -0.792; with P5A-bS, -0.924.

B4: P2A-bP (peptide)
chain: DKIKQLKQKNQRLKQKNQRLKWKIQKLKQ
On to B4, for which the interaction score with P5A-bP was -1.71; with P6A-bP, -0.533; in the test with P2A-bP it was 0.0236; with P8A-bP it was -0.672; in the test with P9A-bP, -0.913; in the test with P7A-bP, -2.54. Besides, the interaction score with P4A-bP was -1.81; with P3A-bP, -1.2.

B5: 4H2253-bN (peptide)
chain: DKIQQLEQENQELKQEIQELKWKIQELEQ
Turning to B5, the interaction score is -0.113 with 4H2859-bN; -0.989 with 4H3041-bN; 0.232 with 4H3297-bN; -0.437 in the test with 4H2931-bN; -0.506 with 4H949-bN; -1.07 with 4H796-bN. In addition, the interaction score in the test with 4H2585-bN is -1.66; in the test with 4H235-bN, -0.204; with 4H730-bN it was -0.523; in the test with 4H2760-bN, 0.286; in the test with 4H56-bN, -0.248; with 4H349-bN, -0.821. In addition, the interaction score in the test with 4H2253-bN is 1.16; with 4H3381-bN, -0.558; with 4H3364-bN, -1.32; in the test with 4H264-bN it was 0.574; in the test with 4H2518-bN, 0.436; with 4H2444-bN, 0.131. Besides, the interaction score with 4H932-bN is -0.7.

B6: 4H3592-bH (peptide)
chain: DKNQELKKEIEELEREIWELEKKNQELKR
Take B6: the interaction score with 4H3907-bH is 1.02; with 4H4038-bH, -0.403; with 4H3601-bH, -0.0581; with 4H3592-bH it was 0.863.
